From PMC3355305, “Localized Dimerization and Nucleoid Binding Drive Gradient Formation by the Bacterial Cell Division Inhibitor MipZ” (Molecular Cell, 2012)

Test system: MipZ or its mutant derivatives (immobilized, homotypic)
Assay: SPR analysis of MipZ self-association / dimer dissociation
Assay type: binding, Caulobacter crescentus
Protocol: Figure 2 Biochemical Analysis of MipZ Dimerization (A) ATPase cycle of MipZ. See the main text for details. (B and C) SPR analysis of MipZ self-association. […] After the binding phase, the chip was washed with buffer lacking protein and nucleotides to follow the dissociation reaction. The rate constants (koff) determined for the dissociation of the MipZ and MipZ-D42A complexes are 0.83 min^−1 and 0.067 min^−1, respectively. (D) Nucleotide-dependent dimerization of MipZ. MipZ-D42A was incubated with ADP (blue), ATP (orange) or ATPγS (red) and subjected to size exclusion chromatography. (E) ATPase activity of MipZ and its mutant derivatives. The graph gives the average turnover rate (kapp, average turnovers/min per molecule of MipZ) of the different MipZ derivatives (6 μM). Data represent the average of at least three independent experiments (±SD). Note that consistent with a critical role of the metal cofactor in dimerization and catalysis Mg^2+ was required for ATP turnover (Figure S2H). (F) Concentration dependence of the MipZ ATPase activity. The average turnover rate of MipZ (kapp) was determined at the indicated protein concentrations. […]

B1: MipZ: P loop ATPase and cell division inhibitor of Caulobacter crescentus; hexahistidine-tagged in vitro, YFP fusion in FRAP (protein)
chain: MAETRVIVVGNEKGGAGKSTIAVHLVTALLYGGAKVAVIDLDLRQRTSARFFENRRAWLDNKKIELPEPLALNLSDNDVALAERPEEEQVAGFEAAFARAMAECDFILIDTPGGDSAITRMAHGRADLVVTPMNDSFVDFDMLGTVDPVTLELTKPSLYSLTVWEGRKQRALSGQRQAMDWVVLRNRLATTEARNRKRLEDRLNALAKRVGFRIGPGLRDRVIYRELFPFGLTIADLSPQVRPVPVSLQHLAARQELRALMHSLGLSAYSGETMLAAQ
modifications: left off: His6, end not stated, state not stated
notes: hexahistidine-tagged in vitro, YFP fusion in FRAP
dissociation rate constant (koff) of the dimeric complex (in the presence of 1 mM ATPγS): 0.003 s⁻¹
dissociation rate constant (koff) of the dimeric complex (in the presence of ATP, chip washed with buffer lacking protein and nucleotides): 0.0138 s⁻¹
